# Patent US20230340142A1 (SUZHOU NEOLOGICS BIOSCIENCE, published 2023)
# Residue numbers refer to the chain shown, from its start.
# B1: BhVH2/BhVL1 (antibody, V domains shown)
# VH: QGQLVQSGAEVKKPGASVKVSCKTSGFTFSSSYISWVRQAPGQGLEWMGWIYAGTGGTSYNQKFTGRVTMTVDTSTSTAYMELRSLRSDDTAVYYCARHEGKYWYFDVWGQGTTVTVSS
# VL: DIQMTQSPSSLSASVGDRVTITCSASSSVSYVHWYQQKPGKAPKPWIYDTSNLASGFPSRFSGSGSGTDYTLTISSLQPEDFATYYCHQRSSYPWTFGGGTKVEIK
# notes: Humanized Clone B; VH and VL cloned into vectors carrying constant regions (CH1-FC/CL), expressed in 293F cells; also called humanized Clone B, Bh VH2 + Bh VL1
# B2: BhVH3/BhVL3 (antibody, V domains shown)
# VH: B1 VH with G2V
# VL: B1 VL with S10T, P45L, W46L, F57V, D69E, Y70F, E80D
# notes: Humanized Clone B; constant regions (CH1-FC/CL) from the vector, expressed in 293F cells; also called humanized Clone B, Bh VH3 + Bh VL3
# B3: ChVH3/ChVL3 (antibody, V domains shown)
# VH: QVQLVQSGAEVKKPGASVKVSCKASGFNIKDTYMHWVRQAPGQGLEWIGRIDPANGNTKYDPKFQGRVTITTDTSANTAYMELSSLRSEDTAVYYCARGLGRWFAYWGQGTTVTVSS
# VL: DIQMTQSPSSLSASVGDRVTITCQASQDVSNAVAWYQQKPGKAPKLLIYSASNLYTGVPSRFSGSGSGTDFTFTISSLQPEDIATYYCQQHDSTPLTFGQGTKLELK
# notes: Humanized Clone C; constant regions (CH1-FC/CL) from the vector, expressed in 293F cells; also called humanized Clone C, Ch VH3 + Ch VL3
# B4: ChVH1/ChVL1 (antibody, V domains shown)
# VH: B3 VH with V20L, K23T, R38K, A40R, R67K, V68A, A76T, M81L
# VL: B3 VL with Q24K, L54R, S60D
# notes: Humanized Clone C; constant regions (CH1-FC/CL) from the vector, expressed in 293F cells; also called humanized Clone C, Ch VH1 + Ch VL1
# B5: ChVH2/ChVL2 (antibody, V domains shown)
# VH: B3 VH with V68A, A76T, M81L
# VL: B3 VL with Q24K, L54R
# notes: Humanized Clone C; constant regions (CH1-FC/CL) from the vector, expressed in 293F cells; also called humanized Clone C, Ch VH2 + Ch VL2
# B6: ChVH2/ChVL3 (antibody, V domains shown)
# VH: B3 VH with V68A, A76T, M81L
# VL: B3 VL
# notes: Humanized Clone C; constant regions (CH1-FC/CL) from the vector, expressed in 293F cells; also called humanized Clone C, Ch VH2 + Ch VL3
# B7: ChVH3/ChVL1 (antibody, V domains shown)
# VH: B3 VH
# VL: B3 VL with Q24K, L54R, S60D
# notes: Humanized Clone C; constant regions (CH1-FC/CL) from the vector, expressed in 293F cells; also called humanized Clone C, Ch VH3 + Ch VL1
# B8: ChVH4/ChVL3 (antibody, V domains shown)
# VH: B3 VH with N77S, M81L
# VL: B3 VL
# notes: Humanized Clone C; constant regions (CH1-FC/CL) from the vector, expressed in 293F cells; also called humanized Clone C, Ch VH4 + Ch VL3
# B9: ChVH5/ChVL1 (antibody, V domains shown)
# VH: B3 VH with G44R, D61S, P62Q, T72R, N77S
# VL: B3 VL with Q24K, L54R, S60D
# notes: Humanized Clone C; constant regions (CH1-FC/CL) from the vector, expressed in 293F cells; also called humanized Clone C, Ch VH5 + Ch VL1
# B10: DhVH2/DhVL2 (antibody, V domains shown)
# VH: QVQLVQSGAEVKKPGASVKVSCKASGYSFTGYTMNWVKQAHGQGLEWMGLIIPYNGGISYNQKFKDRVTMTVDTSISTAYMELSRLRSDDTAVYYCASLITTAPRDSMDYWGQGTLVTVSS
# VL: DIQMTQSPSSLSASVGDRVTITCRASQDISNYLNWYQQKPGKAPKLLIYYTSKLHSGVPSRFSGSGSGTDFTLTISSLQPEDIATYYCQQGDALPWTFGGGTKVEIK
# notes: Humanized Clone D; constant regions from the vector, 293F cells; also called humanized Clone D, Dh VH2 + Dh VL2
# B11: DhVH1/DhVL1 (antibody, V domains shown)
# VH: B10 VH with A40S, M48I, V68A, M70L, I76S
# VL: B10 VL with P8T, K42G, F71Y, P80Q
# notes: Humanized Clone D; constant regions (CH1-FC/CL) from the vector, 293F cells; also called humanized Clone D, Dh VH1 + Dh VL1
# B12: DhVH1/DhVL2 (antibody, V domains shown)
# VH: B10 VH with A40S, M48I, V68A, M70L, I76S
# VL: B10 VL
# notes: Humanized Clone D; constant regions from the vector, 293F cells; also called humanized Clone D, Dh VH1 + Dh VL2
# B13: DhVH2/DhVL1 (antibody, V domains shown)
# VH: B10 VH
# VL: B10 VL with P8T, K42G, F71Y, P80Q
# notes: Humanized Clone D; constant regions from the vector, 293F cells; also called humanized Clone D, Dh VH2 + Dh VL1
# B14: DhVH3/DhVL1 (antibody, V domains shown)
# VH: B10 VH with K38R, H41P
# VL: B10 VL with P8T, K42G, F71Y, P80Q
# notes: Humanized Clone D; constant regions from the vector, 293F cells; also called humanized Clone D, Dh VH3 + Dh VL1
# B15: DhVH3/DhVL2 (antibody, V domains shown)
# VH: B10 VH with K38R, H41P
# VL: B10 VL
# notes: Humanized Clone D; constant regions from the vector, 293F cells; also called humanized Clone D, Dh VH3 + Dh VL2
# B16: DhVH-CDR graft/ DhVL-CDR graft (antibody, V domains shown)
# VH: B10 VH with K38R, H41P, V72R, A79V
# VL: B10 VL with L73F
# notes: also called CDR-grafted humanized Clone D
# B17: Chimeric D (antibody, V domains shown)
# VH: EVQLQQSGPELVKPGASMKISCKASGYSFTGYTMNWVKQSHGKNLEWIGLIIPYNGGISYNQKFKDKATLTVDKSSSTAYMELLSLTSEDSAVYYCASLITTAPRDSMDYWGQGTSVTVSS
# VL: DIQMTQTTSSLSASLGDRVTISCRASQDISNYLNWYQQKPDGSVKLLIYYTSKLHSGVPSRFSGSGSGTDYSLTISNLEQEDIATYFCQQGDALPWTFGGGTKLEIK
# notes: also called chimeric Clone D
# B18: BhVH2/BhVL8 (antibody, V domains shown)
# VH: B1 VH
# VL: EIVMTQSPATLSVSPGERATLSCSASSSVSYVHWYQQKPGQAPRPWIYDTSNLASGFPARFSGSGSGTEYTLTISSLQSEDAAVYYCHQRSSYPWTFGGGTKVEIK
# notes: Humanized Clone B; constant regions (CH1-FC/CL) from the vector, expressed in 293F cells; also called humanized Clone B, Bh VH2 + Bh VL8
# B19: BhVH2/BhVL7 (antibody, V domains shown)
# VH: B1 VH
# VL: B18 VL with P45L, W46L, F57I, Y70F, A82F
# notes: Humanized Clone B; constant regions (CH1-FC/CL) from the vector, expressed in 293F cells; also called humanized Clone B, Bh VH2 + Bh VL7
# B20: BhVH5/BhVL7 (antibody, V domains shown)
# VH: B1 VH with A16S, M70I, R84S, D89E
# VL: B18 VL with P45L, W46L, F57I, Y70F, A82F
# notes: Humanized Clone B; constant regions (CH1-FC/CL) from the vector, expressed in 293F cells; also called humanized Clone B, Bh VH5 + Bh VL7
# B21: BhVH5/BhVL8 (antibody, V domains shown)
# VH: B1 VH with A16S, M70I, R84S, D89E
# VL: B18 VL
# notes: Humanized Clone B; constant regions (CH1-FC/CL) from the vector, expressed in 293F cells; also called humanized Clone B, Bh VH5 + Bh VL8
# B22: Clone C (antibody, V domains shown)
# VH: EVQLQQSGADLVKPGASVKLSCTASGFNIKDTYMHWVKQRPEQGLEWIGRIDPANGNTKYDPKFQGKATITTDTSSNTAYLQLSSLTSEDTAVYYCARGLGRWFAYWGQGTLVTVSA
# VL: DIVMTQSHKFMSTSVGDRVSITCKASQDVSNAVAWYQQKPGQSPELLIYSASNRYTGVPDRFTGSGSGTDFTFTISSVQAEDLAVYYCQQHDSTPLTFGAGTKLELK
# notes: Mouse hybridoma clone
# B23: Clone D (antibody, V domains shown)
# VH: B17 VH
# VL: B17 VL
# notes: Mouse hybridoma clone
# B24: Clone N (antibody, V domains shown)
# VH: B17 VH with Y54H, I58T, S77R, I100M
# VL: B17 VL with S43T, K53R, E79D, D92A, A93T
# notes: Mouse hybridoma clone
# B25: Clone B (antibody, V domains shown)
# VH: QGQMQQSGAELVKPGASVKLSCKTSGFTFSSSYISWLKQKPGQSLEWIAWIYAGTGGTSYNQKFTGKAQLTVDTPSSTAYMQFSSLTTEDSAIYYCARHEGKYWYFDVWGAGTTVTVSS
# VL: QILLTQSPAIMSASPGEKVTMTCSASSSVSYVHWYQQKPGSSPKPWIYDTSNLASGFPARFSGSGSGTSYSLIISSMEAEDAATYYCHQRSSYPWTFGGGTKLEIK
# notes: Mouse hybridoma clone
# Biological target: T1, human PD-L1 (human, UniProt Q9NZQ7 19-238, limits assumed)
# T1 construct: also called hPD-L1
# Assay: Octet-96 BLI; antigen not named, taken as human PD-L1
# T1 sequence (Q9NZQ7 19-238 limits assumed): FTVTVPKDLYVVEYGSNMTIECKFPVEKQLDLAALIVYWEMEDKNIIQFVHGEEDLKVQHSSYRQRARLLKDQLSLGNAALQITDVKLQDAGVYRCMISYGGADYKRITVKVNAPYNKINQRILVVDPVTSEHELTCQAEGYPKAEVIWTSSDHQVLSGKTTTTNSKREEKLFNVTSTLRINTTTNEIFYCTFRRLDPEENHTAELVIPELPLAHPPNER
row,Binder,Kd
1,B1,1.13 nM
2,B2,1.29 nM
3,B3,0.242 nM
4,B4,0.255 nM
5,B5,0.201 nM
6,B6,0.329 nM
7,B7,0.16 nM
8,B8,0.177 nM
9,B9,1.17 nM
10,B10,11.8 nM
11,B11,11.1 nM
12,B12,12.4 nM
13,B13,1.27 nM
14,B14,9.09 nM
15,B15,1.67 nM
16,B16,10.3 nM
17,B17,3.68 nM
18,B18,1.18 nM
19,B19,0.942 nM
20,B20,0.4 nM
21,B21,0.619 nM

# Biological target: T2, human PD-L1 recombinant protein, PD-L1-his (human, UniProt Q9NZQ7 19-238)
# T2 construct: also called PD-L1 with a his-tag; not shown: his-tag
# Assay: Gator BLI; antibody on HFC sensor, PD-L1-his in solution; 1:1 fit
# Protocol: PD-L1 antibodies were coupled to the surface of the HFC sensor (Probe Life), and human PD-L1 recombinant protein as the mobile phase was 2 times gradient diluted. The association and dissociation between PD-L1 protein and the antibodies on the surface of the sensor were measured. Specifically, the HFC sensor was prewetted in SD buffer (PBS containing 0.02% Tween-20 and 0.2% BSA) for 5-10 minutes, and then incubated in SD buffer containing antibodies for 1-3 minutes, allowing antibodies to be coupled to the sensor surface. The antibody-coupled HFC sensor was incubated in the SD buffer solution for 1 minute, and then incubated in the buffer solution containing different concentrations of PD-L1-his for 1-5 minutes to measure the association of PD-L1 protein to captured antibody. Finally, the sensor combining the antigen and antibody was incubated in SD buffer for 2-10 minutes to measure PD-L1 protein’s dissociation from sensor. The measured data were fitted using a 1:1 model, and the association rate (Kon) and the dissociation rate (Koff) were calculated. The equilibrium dissociation constant (kD) was calculated by the ratio Koff/Kon.
# T2 sequence (Q9NZQ7 19-238 limits assumed): as above
Binder,Kd,koff,kon
B22,4.32 nM,0.00101 s⁻¹,234000 M⁻¹ s⁻¹
B23,3.68 nM,0.000826 s⁻¹,225000 M⁻¹ s⁻¹
B24,3.52 nM,0.000582 s⁻¹,165000 M⁻¹ s⁻¹
B25,5.94 nM,0.0006 s⁻¹,101000 M⁻¹ s⁻¹

# Biological target: T1, human PD-L1
# Assay: flow cytometry on RKO cells (PD-L1 on the cell surface), PE-labelled secondary antibody, MFI
# Protocol: (§1) Glycosylation differences in cancer cell lines of different tissue origin may affect the binding affinity between PD-L1 antibody and PD-L1. In this study, five cell lines were selected, namely BT20(Breast), mb-231 (Breast), A375(Melanoma), HCC827(Lung), and RKO(Colon). Cells were re-suspended with FACS buffer (1%BSA in PBS), and 50 µl cell suspension per well was added to the 96-well U-bottom plate (Corning, catalog#3795). The purified antibody to be tested was diluted in gradient, then 50 µl was added to each well and incubated at 4° C. for 1 hour. After washing by FACS buffer for three times, the cells were incubated with PE-labeled fluorescent secondary antibody and incubated at 4° C. for half an hour. Cells were washed three times with FACS buffer and resuspended to 200 uL/ well. The fluorescence signal was detected using Canto II flow cytometry (BD).
row,Binder,EC50 (read off the curve)
1,B22,~0.02 µg/mL
2,B23,~0.02 µg/mL
3,B24,~0.03 µg/mL
4,B25,~0.04 µg/mL

# Biological target: T1, human PD-L1
# Assay: flow cytometry on BT20 cells (PD-L1 on the cell surface), PE-labelled secondary antibody, MFI
# Protocol: as §1
row,Binder,EC50 (read off the curve)
1,B22,~0.02 µg/mL
2,B23,~0.01 µg/mL
3,B24,~0.007 µg/mL

# Biological target: T1, human PD-L1
# Assay: flow cytometry on HCC827 cells (PD-L1 on the cell surface), PE-labelled secondary antibody, MFI
# Protocol: as §1
row,Binder,EC50 (read off the curve)
1,B22,~0.03 µg/mL
2,B23,~0.02 µg/mL
3,B24,~0.02 µg/mL
4,B25,~0.05 µg/mL

# Biological target: T1, human PD-L1
# Assay: flow cytometry on MDA-MB-231 cells (PD-L1 on the cell surface), PE-labelled secondary antibody, MFI
# Protocol: as §1
row,Binder,EC50 (read off the curve)
1,B22,~0.03 µg/mL
2,B23,~0.03 µg/mL
3,B24,~0.03 µg/mL
4,B25,~0.06 µg/mL
